In patent US20210108176A1 (IMPERIAL COLLEGE INNOVATIONS, published 2021):

Target: T1, EZH2 (UniProt Q15910 1-746, limits assumed)
T1 construct: Endogenous protein immunoprecipitated from U266 cell chromatin; also called polycomb complex methyl-transferase EZH2
Experiment: ChIP-reChIP qPCR in U266 cells (IP against RARalpha, then EZH2)
Procedure: Chromatin immunoprecipitation (ChIP) combined with real-time quantitative polymerase chain reaction (ChIP-RQ-PCR) was performed for anti-H3K4me3, anti-H3K27me3, anti-RNA polymerase II CTD phospho Ser2, anti-RNA polymerase II CTD phospho Ser5, anti-EZH2, anti-RARα and control IgG as previously described²⁵. For Re-ChIP assays, the wash and chromatin elution steps of the first IP were performed with protease inhibitor-containing buffers and the first elution was performed by incubating the magnetic beads in 10 mM DTT/TE for 30 min at 37° C. The eluate of the first IP was diluted at least 20× in ChIP dilution buffer, followed by a second IP according to the same protocol as above. Expression of immunoprecipitated DNA was calculated, either relative to input DNA or DNA immunoprecipitated by control IgG antibody, using the ΔΔCT method.

T1 sequence (Q15910 whole entry): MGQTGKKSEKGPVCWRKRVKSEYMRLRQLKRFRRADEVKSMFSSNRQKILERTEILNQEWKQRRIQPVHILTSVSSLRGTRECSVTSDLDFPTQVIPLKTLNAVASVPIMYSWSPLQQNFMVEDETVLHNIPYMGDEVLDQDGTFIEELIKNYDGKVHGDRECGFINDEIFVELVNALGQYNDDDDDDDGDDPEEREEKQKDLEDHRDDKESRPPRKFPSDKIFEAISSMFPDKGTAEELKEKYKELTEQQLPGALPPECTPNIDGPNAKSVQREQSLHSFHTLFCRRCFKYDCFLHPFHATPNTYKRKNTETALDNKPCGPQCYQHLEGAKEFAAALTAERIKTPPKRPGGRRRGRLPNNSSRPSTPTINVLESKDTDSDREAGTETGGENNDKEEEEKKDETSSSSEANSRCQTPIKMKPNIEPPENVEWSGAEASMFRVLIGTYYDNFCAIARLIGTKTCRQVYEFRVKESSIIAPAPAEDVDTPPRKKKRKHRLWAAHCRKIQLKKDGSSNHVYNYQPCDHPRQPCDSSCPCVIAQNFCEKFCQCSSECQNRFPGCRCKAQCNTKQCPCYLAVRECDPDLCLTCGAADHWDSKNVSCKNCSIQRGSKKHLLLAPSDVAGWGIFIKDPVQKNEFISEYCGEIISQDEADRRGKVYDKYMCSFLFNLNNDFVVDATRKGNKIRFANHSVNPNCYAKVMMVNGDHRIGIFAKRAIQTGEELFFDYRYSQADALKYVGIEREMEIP

B1: RARalpha (receptor, UniProt P10276 1-462, looked up)
chain: MASNSSSCPTPGGGHLNGYPVPPYAFFFPPMLGGLSPPGALTTLQHQLPVSGYSTPSPATIETQSSSSEEIVPSPPSPPPLPRIYKPCFVCQDKSSGYHYGVSACEGCKGFFRRSIQKNMVYTCHRDKNCIINKVTRNRCQYCRLQKCFEVGMSKESVRNDRNKKKKEVPKPECSESYTLTPEVGELIEKVRKAHQETFPALCQLGKYTTNNSSEQRVSLDIDLWDKFSELSTKCIIKTVEFAKQLPGFTTLTIADQITLLKAACLDILILRICTRYTPEQDTMTFSDGLTLNRTQMHNAGFGPLTDLVFAFANQLLPLEMDDAETGLLSAICLICGDRQDLEQPDRVDMLQEPLLEALKVYVRKRRPSRPHMFPKMLMKITDLRSISAKGAERVITLKMEIPGSMPPLIQEMLENSEGLDTLSGQPGGGGRDGGGLAPPPGSCSPSLSPSSNRSSPATHSP
notes: Endogenous protein immunoprecipitated from U266 cell chromatin
- binding result: binds
